Reference: IntAct's records for PubMed 20042240

B1: Complement factor H-related protein 4 (Homo sapiens), Q92496-1 (parent)
chain: MLLLINVILTLWVSCANGQEVKPCDFPEIQHGGLYYKSLRRLYFPAAAGQSYSYYCDQNFVTPSGSYWDYIHCTQDGWSPTVPCLRTCSKSDVEIENGFISESSSIYILNEETQYNCKPGYATAEGNSSGSITCLQNGWSTQPICIKFCDMPVFENSRAKSNGMWFKLHDTLDYECYDGYESSYGNTTDSIVCGEDGWSHLPTCYNSSENCGPPPPISNGDTTSFPQKVYLPWSRVEYQCQSYYELQGSKYVTCSNGDWSEPPRCISMKPCEFPEIQHGHLYYENTRRPYFPVATGQSYSYYCDQNFVTPSGSYWDYIHCTQDGWLPTVPCLRTCSKSDIEIENGFISESSSIYILNKEIQYKCKPGYATADGNSSGSITCLQNGWSAQPICIKFCDMPVFENSRAKSNGMRFKLHDTLDYECYDGYEISYGNTTGSIVCGEDGWSHFPTCYNSSEKCGPPPPISNGDTTSFLLKVYVPQSRVEYQCQSYYELQGSNYVTCSNGEWSEPPRCIHPCIITEENMNKNNIQLKGKSDIKYYAKTGDTIEFMCKLGYNANTSVLSFQAVCREGIVEYPRCE
partner: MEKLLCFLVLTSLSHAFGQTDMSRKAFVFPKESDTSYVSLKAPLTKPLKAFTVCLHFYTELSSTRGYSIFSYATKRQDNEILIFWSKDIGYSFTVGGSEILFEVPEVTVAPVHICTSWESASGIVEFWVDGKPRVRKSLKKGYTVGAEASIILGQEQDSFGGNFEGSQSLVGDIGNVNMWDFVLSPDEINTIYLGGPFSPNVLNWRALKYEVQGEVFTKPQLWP

Assays:
Conditions in all cases: with crp_human CRP
[1] = variants of: B1
[2] = variants of: B1; remark: listed apart in the source
[3] = variants of: B1; remark: listed apart in the source

In the case of MLLLINVILTLWVSCANGQEVKPCDFPEIQHGGLYYASLAALYFPAAAGQSYSYYCDQNFVTPSGSYWDYIHCTQDGWSPTVPCLRTCSKSDVEIENGFISESSSIYILNEETQYNCKPGYATAEGNSSGSITCLQNGWSTQPICIKFCDMPVFENSRAKSNGMWFKLHDTLDYECYDGYESSYGNTTDSIVCGEDGWSHLPTCYNSSENCGPPPPISNGDTTSFPQKVYLPWSRVEYQCQSYYELQGSKYVTCSNGDWSEPPRCISMKPCEFPEIQHGHLYYENTRRPYFPVATGQSYSYYCDQNFVTPSGSYWDYIHCTQDGWLPTVPCLRTCSKSDIEIENGFISESSSIYILNKEIQYKCKPGYATADGNSSGSITCLQNGWSAQPICIKFCDMPVFENSRAKSNGMRFKLHDTLDYECYDGYEISYGNTTGSIVCGEDGWSHFPTCYNSSEKCGPPPPISNGDTTSFLLKVYVPQSRVEYQCQSYYELQGSNYVTCSNGEWSEPPRCIHPCIITEENMNKNNIQLKGKSDIKYYAKTGDTIEFMCKLGYNANTSVLSFQAVCREGIVEYPRCE [K37A;R40A;R41A], the “effect of a mutation on the interaction” value [1] is reported as “decreasing interaction strength” and the “effect of a mutation on the interaction” value [2] is reported as “disrupting interaction strength”.

In the case of MLLLINVILTLWVSCANGQEVKPCDFPEIQHGGLYYASLRRLYFPAAAGQSYSYYCDQNFVTPSGSYWDYIHCTQDGWSPTVPCLRTCSKSDVEIENGFISESSSIYILNEETQYNCKPGYATAEGNSSGSITCLQNGWSTQPICIKFCDMPVFENSRAKSNGMWFKLHDTLDYECYDGYESSYGNTTDSIVCGEDGWSHLPTCYNSSENCGPPPPISNGDTTSFPQKVYLPWSRVEYQCQSYYELQGSKYVTCSNGDWSEPPRCISMKPCEFPEIQHGHLYYENTRRPYFPVATGQSYSYYCDQNFVTPSGSYWDYIHCTQDGWLPTVPCLRTCSKSDIEIENGFISESSSIYILNKEIQYKCKPGYATADGNSSGSITCLQNGWSAQPICIKFCDMPVFENSRAKSNGMRFKLHDTLDYECYDGYEISYGNTTGSIVCGEDGWSHFPTCYNSSEKCGPPPPISNGDTTSFLLKVYVPQSRVEYQCQSYYELQGSNYVTCSNGEWSEPPRCIHPCIITEENMNKNNIQLKGKSDIKYYAKTGDTIEFMCKLGYNANTSVLSFQAVCREGIVEYPRCE [K37A], the “effect of a mutation on the interaction” value [2] is reported as “decreasing interaction strength” and the “effect of a mutation on the interaction” value [3] is reported as “disrupting interaction strength”.

For MLLLINVILTLWVSCANGQEVKPCDFPEIQHGGLYYAALRRLYFPAAAGQSYSYYCDQNFVTPSGSYWDYIHCTQDGWSPTVPCLRTCSKSDVEIENGFISESSSIYILNEETQYNCKPGYATAEGNSSGSITCLQNGWSTQPICIKFCDMPVFENSRAKSNGMWFKLHDTLDYECYDGYESSYGNTTDSIVCGEDGWSHLPTCYNSSENCGPPPPISNGDTTSFPQKVYLPWSRVEYQCQSYYELQGSKYVTCSNGDWSEPPRCISMKPCEFPEIQHGHLYYENTRRPYFPVATGQSYSYYCDQNFVTPSGSYWDYIHCTQDGWLPTVPCLRTCSKSDIEIENGFISESSSIYILNKEIQYKCKPGYATADGNSSGSITCLQNGWSAQPICIKFCDMPVFENSRAKSNGMRFKLHDTLDYECYDGYEISYGNTTGSIVCGEDGWSHFPTCYNSSEKCGPPPPISNGDTTSFLLKVYVPQSRVEYQCQSYYELQGSNYVTCSNGEWSEPPRCIHPCIITEENMNKNNIQLKGKSDIKYYAKTGDTIEFMCKLGYNANTSVLSFQAVCREGIVEYPRCE [K37A;S38A], the “effect of a mutation on the interaction” value [2] was “disrupting interaction strength”.

In the case of MLLLINVILTLWVSCANGQEVKPCDFPEIQHGGLAAKSLRRLYFPAAAGQSYSYYCDQNFVTPSGSYWDYIHCTQDGWSPTVPCLRTCSKSDVEIENGFISESSSIYILNEETQYNCKPGYATAEGNSSGSITCLQNGWSTQPICIKFCDMPVFENSRAKSNGMWFKLHDTLDYECYDGYESSYGNTTDSIVCGEDGWSHLPTCYNSSENCGPPPPISNGDTTSFPQKVYLPWSRVEYQCQSYYELQGSKYVTCSNGDWSEPPRCISMKPCEFPEIQHGHLYYENTRRPYFPVATGQSYSYYCDQNFVTPSGSYWDYIHCTQDGWLPTVPCLRTCSKSDIEIENGFISESSSIYILNKEIQYKCKPGYATADGNSSGSITCLQNGWSAQPICIKFCDMPVFENSRAKSNGMRFKLHDTLDYECYDGYEISYGNTTGSIVCGEDGWSHFPTCYNSSEKCGPPPPISNGDTTSFLLKVYVPQSRVEYQCQSYYELQGSNYVTCSNGEWSEPPRCIHPCIITEENMNKNNIQLKGKSDIKYYAKTGDTIEFMCKLGYNANTSVLSFQAVCREGIVEYPRCE [Y35A;Y36A], the “effect of a mutation on the interaction” value [2] is reported as “decreasing interaction strength” and the “effect of a mutation on the interaction” value [3] is reported as “disrupting interaction strength”.

In the case of MLLLINVILTLWVSCANGQEVKPCDFPEIQHGGLYYKALRRLYFPAAAGQSYSYYCDQNFVTPSGSYWDYIHCTQDGWSPTVPCLRTCSKSDVEIENGFISESSSIYILNEETQYNCKPGYATAEGNSSGSITCLQNGWSTQPICIKFCDMPVFENSRAKSNGMWFKLHDTLDYECYDGYESSYGNTTDSIVCGEDGWSHLPTCYNSSENCGPPPPISNGDTTSFPQKVYLPWSRVEYQCQSYYELQGSKYVTCSNGDWSEPPRCISMKPCEFPEIQHGHLYYENTRRPYFPVATGQSYSYYCDQNFVTPSGSYWDYIHCTQDGWLPTVPCLRTCSKSDIEIENGFISESSSIYILNKEIQYKCKPGYATADGNSSGSITCLQNGWSAQPICIKFCDMPVFENSRAKSNGMRFKLHDTLDYECYDGYEISYGNTTGSIVCGEDGWSHFPTCYNSSEKCGPPPPISNGDTTSFLLKVYVPQSRVEYQCQSYYELQGSNYVTCSNGEWSEPPRCIHPCIITEENMNKNNIQLKGKSDIKYYAKTGDTIEFMCKLGYNANTSVLSFQAVCREGIVEYPRCE [S38A], the “effect of a mutation on the interaction” value [2] is reported as “with no effect” and the “effect of a mutation on the interaction” value [3] is reported as “decreasing interaction strength”.

With MLLLINVILTLWVSCANGQEVKPCDFPEIQHGGLYYAAARRLYFPAAAGQSYSYYCDQNFVTPSGSYWDYIHCTQDGWSPTVPCLRTCSKSDVEIENGFISESSSIYILNEETQYNCKPGYATAEGNSSGSITCLQNGWSTQPICIKFCDMPVFENSRAKSNGMWFKLHDTLDYECYDGYESSYGNTTDSIVCGEDGWSHLPTCYNSSENCGPPPPISNGDTTSFPQKVYLPWSRVEYQCQSYYELQGSKYVTCSNGDWSEPPRCISMKPCEFPEIQHGHLYYENTRRPYFPVATGQSYSYYCDQNFVTPSGSYWDYIHCTQDGWLPTVPCLRTCSKSDIEIENGFISESSSIYILNKEIQYKCKPGYATADGNSSGSITCLQNGWSAQPICIKFCDMPVFENSRAKSNGMRFKLHDTLDYECYDGYEISYGNTTGSIVCGEDGWSHFPTCYNSSEKCGPPPPISNGDTTSFLLKVYVPQSRVEYQCQSYYELQGSNYVTCSNGEWSEPPRCIHPCIITEENMNKNNIQLKGKSDIKYYAKTGDTIEFMCKLGYNANTSVLSFQAVCREGIVEYPRCE [K37A;S38A;L39A] the “effect of a mutation on the interaction” value [2] was “disrupting interaction strength”.
